Reference: the supplement of paper PMC10724198
± gives the standard deviation of the averaged measurements.

How the values were obtained:
Saccharomyces cerevisiae [1] = experiment: protein stability index of tFT-peptide fusion (C-terminal peptide) (PSI (0-1 scale)); higher = more stable (slower turnover)
Protocol: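 MPS profiling in S. cerevisiae of the tFT-X12 degron library: putative degron peptides plus stable controls, 12 aa, fused to the C-terminus of a sfGFP-mCherry timer. Cells are FACS-sorted into 8 mCherry/sfGFP bins and deep-sequenced. PSI runs from 0 (unstable) to 1 (stable). Backgrounds are wild type, das1Δ and doa10Δ at 30 °C, and wild type, das1Δ, cdc34-1 and cdc53-1 at 37 °C; 2-3 technical replicates each.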

Saccharomyces cerevisiae [2] = experiment: as above; conditions: genetic background: wild type; temperature: 30 C
[3] = genetic background: cdc34-1, temperature: 37 C
[4] = genetic background: cdc53-1, temperature: 37 C
[5] = genetic background: das1 deletion, temperature: 30 C
[6] = genetic background: das1 deletion, temperature: 37 C
[7] = genetic background: doa10 deletion, temperature: 30 C
[8] = genetic background: wild type, temperature: 30 C
[9] = genetic background: wild type, temperature: 37 C
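Also: PSI is a weighted mean of sequencing reads over stability bins, variants kept only with over 10 reads, mCherry proximal and sfGFP distal, peptide attached via GGGS linker.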

Row | Sequence | protein stability index (Saccharomyces cerevisiae [1]; [3]) | protein stability index (Saccharomyces cerevisiae [1]; [4]) | protein stability index (Saccharomyces cerevisiae [1]; [5]) | protein stability index (Saccharomyces cerevisiae [1]; [6]) | protein stability index (Saccharomyces cerevisiae [1]; [7]) | protein stability index (Saccharomyces cerevisiae [1]; [8]) | protein stability index (Saccharomyces cerevisiae [1]; [9]) | protein stability index (Saccharomyces cerevisiae [2])
1 | FFVFVVFFCFGL | 0.321 ± 0.008 | 0.438 ± 0.035 | 0.303 ± 0.023 | 0.444 ± 0.0091 | 0.2809 ± 0.0014 | 0.303 ± 0.0093 | 0.41 ± 0.014 | 0.383 ± 0.047
2 | VPQQWFAETGRC | 0.72 ± 0.031 | 0.763 ± 0.036 | 0.668 ± 0.026 | 0.7455 ± 0.0051 | 0.657 ± 0.038 | 0.662 ± 0.028 | 0.742 ± 0.014 | 0.745 ± 0.019
3 | IILRPQYVHYFL | 0.532 ± 0.035 | 0.594 ± 0.027 | 0.497 ± 0.025 | 0.5597 ± 0.00026 | 0.482 ± 0.023 | 0.484 ± 0.025 | 0.5457 ± 0.00084 | 0.454 ± 0.018
4 | CFVICVCLCFGR | 0.229 ± 0.044 | 0.3626 ± 0.002 | 0.232 ± 0.018 | 0.416 ± 0.015 | 0.206 ± 0.0033 | 0.21 ± 0.026 | 0.371 ± 0.0092 | 0.35 ± 0.025
5 | SVHKYGFIKEIN | 0.732 ± 0.026 | 0.70852 ± 0.00021 | 0.668 ± 0.061 | 0.761 ± 0.023 | 0.473 ± 0.035 | 0.474 ± 0.046 | 0.667 ± 0.016 | 0.531 ± 0.047
6 | GGSGGVSWRRVV | 0.68 ± 0.034 | 0.735 ± 0.0088 | 0.654 ± 0.011 | 0.725 ± 0.01 | 0.223 ± 0.019 | 0.264 ± 0.018 | 0.546 ± 0.051 | 0.395 ± 0.022
7 | VWFFGVVLGGLW | 0.527 ± 0.071 | 0.554 ± 0.0091 | 0.423 ± 0.031 | 0.584 ± 0.014 | 0.4157 ± 0.00077 | 0.421 ± 0.018 | 0.561 ± 0.03 | 0.4443 ± 0.0021
8 | GGWFFWVGAWVV | 0.173 ± 0.005 | 0.346 ± 0.028 | 0.202 ± 0.026 | 0.3957 ± 0.0013 | 0.102 ± 0.018 | 0.121 ± 0.025 | 0.214 ± 0.0027 | 0.193 ± 0.0025
9 | LLLLFPSPLFIR | 0.126 ± 0.057 | 0.0999 ± 0.026 | 0.235 ± 0.012 | 0.303 ± 0.022 | 0.553 ± 0.024 | 0.216 ± 0.019 | 0.272 ± 0.02 | 0.281 ± 0.05
10 | FCRLTFCFFAFL | 0.573 ± 0.051 | 0.646 ± 0.0074 | 0.499 ± 0.019 | 0.641 ± 0.0092 | 0.446 ± 0.017 | 0.438 ± 0.014 | 0.5586 ± 0.00064 | 0.47 ± 0.035
11 | IFSFRWVLPFWL | 0.611 ± 0.059 | 0.701 ± 0.008 | 0.6 ± 0.026 | 0.70093 ± 0.00061 | 0.2407 ± 0.00051 | 0.256 ± 0.04 | 0.424 ± 0.0043 | 0.365 ± 0.098
12 | HNQDKNVKYKIG | 0.672 ± 0.023 | 0.733 ± 0.034 | 0.625 ± 0.032 | 0.705 ± 0.021 | 0.248 ± 0.006 | 0.33 ± 0.039 | 0.536 ± 0.0064 | 0.41 ± 0.037
13 | YLFFHMVVLVVV | 0.0358 ± 0.0027 | 0.0745 ± 0.0059 | 0.118 ± 0.043 | 0.182 ± 0.0041 | 0.0943 ± 0.019 | 0.105 ± 0.048 | 0.149 ± 0.019 | 0.157 ± 0.018
14 | ACGGGSNVHRAG | 0.665 ± 0.028 | 0.7248 ± 0.0067 | 0.657 ± 0.019 | 0.767 ± 0.021 | 0.662 ± 0.045 | 0.66 ± 0.018 | 0.75211 ± 0.00044 | 0.747 ± 0.012
15 | VLLSFVFCGWVR | 0.458 ± 0.014 | 0.4842 ± 0.0018 | 0.345 ± 0.027 | 0.516 ± 0.0096 | 0.326 ± 0.013 | 0.349 ± 0.025 | 0.4963 ± 0.0042 | 0.442 ± 0.019
16 | VRFPVFFIILFL | 0.0864 ± 0.024 | 0.0743 ± 0.0032 | 0.15 ± 0.029 | 0.235 ± 0.017 | 0.241 ± 0.014 | 0.142 ± 0.029 | 0.202 ± 0.0029 | 0.239 ± 0.018
17 | ACVRLVLCVCRV | 0.281 ± 0.011 | 0.341 ± 0.042 | 0.237 ± 0.04 | 0.4091 ± 0.0036 | 0.211 ± 0.015 | 0.225 ± 0.028 | 0.375 ± 0.02 | 0.339 ± 0.0039

Row | Sequence | protein stability index (Saccharomyces cerevisiae [1]; [3]) | protein stability index (Saccharomyces cerevisiae [1]; [4]) | protein stability index (Saccharomyces cerevisiae [1]; [5]) | protein stability index (Saccharomyces cerevisiae [1]; [6]) | protein stability index (Saccharomyces cerevisiae [1]; [7]) | protein stability index (Saccharomyces cerevisiae [1]; [8]) | protein stability index (Saccharomyces cerevisiae [1]; [9]) | protein stability index (Saccharomyces cerevisiae [2])
18 | SCFRSLAVYFLC | 0.333 ± 0.025 | 0.624 ± 0.02 | 0.603 ± 0.033 | 0.678 ± 0.01 | 0.0706 ± 0.0018 | 0.07 ± 0.015 | 0.0763 ± 0.0025 | 0.155 ± 0.032
19 | TLLMVSMTVRPL | 0.3005 ± 0.00077 | 0.379 ± 0.02 | 0.274 ± 0.022 | 0.411 ± 0.011 | 0.26 ± 0.0094 | 0.272 ± 0.022 | 0.398 ± 0.036 | 0.38 ± 0.0051
20 | SPTQIPLWILAS | 0.258 ± 0.0095 | 0.394 ± 0.04 | 0.308 ± 0.04 | 0.4539 ± 0.0022 | 0.102 ± 0.0074 | 0.114 ± 0.014 | 0.12 ± 0.015 | 0.186 ± 0.015
21 | ALNFFSLFMLFR | 0.221 ± 0.058 | 0.168 ± 0.07 | 0.325 ± 0.041 | 0.422 ± 0.022 | 0.603 ± 0.0092 | 0.325 ± 0.034 | 0.358 ± 0.022 | 0.398 ± 0.048
22 | VIRSIVSAYMIC | 0.552 ± 0.043 | 0.649 ± 0.013 | 0.563 ± 0.013 | 0.6726 ± 0.0028 | 0.255 ± 0.0033 | 0.248 ± 0.02 | 0.334 ± 0.037 | 0.293 ± 0.051
23 | YVCVVSVLLGLL | 0.25 ± 0.017 | 0.319 ± 0.029 | 0.24 ± 0.026 | 0.441 ± 0.0082 | 0.19367 ± 8.4e-05 | 0.226 ± 0.015 | 0.3823 ± 0.0025 | 0.31 ± 0.031
24 | IWVVIISDSRVG | 0.33375 ± 0.00011 | – | 0.283 ± 0.059 | 0.488 ± 0.02 | 0.247 ± 0.019 | 0.342 ± 0.094 | 0.4636 ± 0.0027 | 0.352 ± 0.0071
25 | SCLVLDYCFSLV | 0.649 ± 0.037 | 0.631 ± 0.012 | 0.419 ± 0.029 | 0.643 ± 0.0034 | 0.446 ± 0.019 | 0.435 ± 0.02 | 0.613 ± 0.0062 | 0.442 ± 0.016
26 | LWFRCVRMQACR | 0.47 ± 0.031 | 0.51569 ± 0.00022 | 0.411 ± 0.019 | 0.5101 ± 0.0028 | 0.42 ± 0.025 | 0.41 ± 0.015 | 0.492 ± 0.0094 | 0.507 ± 0.032
27 | MACLRLTVYVMG | 0.0763 ± 0.013 | 0.0769 ± 0.045 | 0.135 ± 0.031 | 0.2187 ± 0.0016 | 0.088 ± 0.034 | 0.13 ± 0.026 | 0.202 ± 0.0036 | 0.283 ± 0.017
28 | MALAVRVVACGA | 0.125 ± 0.032 | 0.1647 ± 0.0014 | 0.196 ± 0.026 | 0.281 ± 0.0065 | 0.157 ± 0.012 | 0.19 ± 0.024 | 0.236 ± 0.0084 | 0.261 ± 0.0094
29 | LFFLSASFFFFF | 0.458 ± 0.011 | 0.554 ± 0.0066 | 0.449 ± 0.034 | 0.547 ± 0.0075 | 0.222 ± 0.0092 | 0.207 ± 0.033 | 0.356 ± 0.067 | 0.289 ± 0.0064
30 | SWWISKWVGLNC | 0.705 ± 0.0095 | 0.778 ± 0.01 | 0.636 ± 0.013 | 0.7821 ± 0.0033 | 0.367 ± 0.0053 | 0.402 ± 0.043 | 0.6358 ± 0.0049 | 0.52 ± 0.034
31 | FLFLSPLALHVS | 0.444 ± 0.03 | 0.494 ± 0.014 | 0.412 ± 0.022 | 0.513 ± 0.014 | 0.177 ± 0.0097 | 0.212 ± 0.024 | 0.256 ± 0.011 | 0.304 ± 0.01
32 | VYFRYWLLVVVF | 0.0945 ± 0.029 | 0.106 ± 0.022 | 0.148 ± 0.034 | 0.215 ± 0.0027 | 0.117 ± 0.029 | 0.101 ± 0.026 | 0.15 ± 0.0062 | 0.129 ± 0.019
33 | LLVYLYFFFSCS | 0.309 ± 0.041 | 0.442 ± 0.045 | 0.292 ± 0.021 | 0.484 ± 0.005 | 0.2414 ± 0.0016 | 0.263 ± 0.011 | 0.42 ± 0.027 | 0.374 ± 0.022
